{"source": "paper PMC12439145", "assay_in_all_cases": "flow cytometry", "details_in_all_cases": "apparent Kd on cells; SPR at 25 C, His-KIT on CM5 chip, 50 mM NaOH regeneration; flow cytometry with 250 nM Cy5-aptamer in binding buffer with 1 mg/ml BSA and 1 mM yeast tRNA; salt …", "key": {"[1]": {"target": "KIT on GIST-430 cells (human (GIST-430)) (UniProt P10721)", "sequence (P10721 26-976)": "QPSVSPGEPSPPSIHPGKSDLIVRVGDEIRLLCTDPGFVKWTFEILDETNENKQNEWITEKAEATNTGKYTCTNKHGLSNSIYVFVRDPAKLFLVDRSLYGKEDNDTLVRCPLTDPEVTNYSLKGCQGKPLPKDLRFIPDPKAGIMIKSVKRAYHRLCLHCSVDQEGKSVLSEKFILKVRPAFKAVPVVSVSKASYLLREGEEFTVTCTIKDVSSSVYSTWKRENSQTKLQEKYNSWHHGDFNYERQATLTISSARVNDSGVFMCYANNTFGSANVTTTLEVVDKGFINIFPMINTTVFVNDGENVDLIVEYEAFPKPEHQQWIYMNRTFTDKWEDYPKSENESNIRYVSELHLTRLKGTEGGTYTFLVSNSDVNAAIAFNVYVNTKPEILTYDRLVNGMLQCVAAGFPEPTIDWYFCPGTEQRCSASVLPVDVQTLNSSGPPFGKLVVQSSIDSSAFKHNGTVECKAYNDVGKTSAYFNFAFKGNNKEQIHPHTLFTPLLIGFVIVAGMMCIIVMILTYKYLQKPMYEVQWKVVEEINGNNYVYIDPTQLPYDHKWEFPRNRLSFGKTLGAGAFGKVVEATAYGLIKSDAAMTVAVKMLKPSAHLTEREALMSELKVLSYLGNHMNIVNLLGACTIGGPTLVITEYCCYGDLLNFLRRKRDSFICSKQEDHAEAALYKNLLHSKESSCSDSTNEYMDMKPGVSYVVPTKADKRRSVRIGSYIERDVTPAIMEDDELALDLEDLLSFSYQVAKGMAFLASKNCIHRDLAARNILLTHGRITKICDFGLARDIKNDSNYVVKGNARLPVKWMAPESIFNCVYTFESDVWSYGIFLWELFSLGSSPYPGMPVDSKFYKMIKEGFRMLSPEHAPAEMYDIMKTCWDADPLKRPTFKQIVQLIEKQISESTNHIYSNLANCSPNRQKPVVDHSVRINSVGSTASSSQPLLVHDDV"}, "[2]": {"target": "KIT on GIST-T1 cells (human (GIST-T1)) (UniProt P10721)", "sequence (P10721 26-976)": "as above"}, "[3]": {"target": "KIT on GIST-430/654 cells (human (GIST-430/654)) (UniProt P10721)", "sequence (P10721 26-976)": "as above"}}, "data": [{"sequence": "ATTCAAGGGGCCGGGGCAAGGGGGGGGTACCGTGGTAGGACATAGT [KIT-d]", "values": [{"measurement": "Kd", "setting": "[1]", "value": 41.6, "unit": "nM"}, {"measurement": "Kd", "setting": "[2]", "value": 76, "unit": "nM"}, {"measurement": "Kd", "setting": "[3]", "value": 109, "unit": "nM"}]}]}
